# Measured values from patent US20250092373A1, “CRISPR-MEDIATED DELETION OF FLI1 IN NK CELLS” (The Regents of the University of California, priority 2022, published 2025).
# Legend:
# splenic NK cells [1] = settings: 3 hours after cytokine stimulation ex vivo; published RNA-seq datasets (GSE140044); cited from earlier work
# STAT5 = assay: Fli1 protein by western blot in IL-15-stimulated splenic NK cells with STAT5 inhibitor or vehicle; type: cell-based, mouse; settings: 100 μM inhibitor vs vehicle control (DMSO)
# Description: (§1) For plate-bound antibody stimulation experiments, ˜5×10^5 isolated NK cells were stimulated with […] precoated antibody against NK1.1 (PK136) for 4 hours in complete media containing Brefeldin A (1:1000; BioLegend) and Monensin (2 uM; BioLegend). Cells were cultured in media alone as a negative control. In cytokine stimulation experiments, isolated NK cells were incubated with various concentrations of mouse IL-15 or IL-2, in the presence or absence of 100 μM CAS 285986-31-4 STAT5 inhibitor (Millipore Sigma).
# (§2) Protein was extracted from enriched primary splenic NK cells using Pierce RIPA buffer (Thermo-Fisher) with Halt protease inhibitor cocktail (Thermo-Fisher) and protein concentration was quantified using the Pierce BCA Protein Assay kit (Thermo-Fisher). Samples were electrophoresed on NuPage Novex 4-12% Bis-Tris Protein Gels, transferred to PVDF membranes, and blocked for one hour at room temperature with 5% w/v nonfat milk in 1× TBS and 0.1% Tween-20. Immunoblots were performed using rabbit anti-Fli1 (Abcam ab133485), rabbit anti-β-actin (Cell Signaling CST4970), and rabbit anti-GAPDH (Millipore Sigma G9545). Proteins were detected using the SuperSignal West Pico PLUS ECL kit (Thermo-Fisher) and visualized using the Azure Biosystems c280 imager. Band density was quantified using ImageJ version 1.53.
# splenic NK cells [2] = assay: Fli1 protein by immunoblot of purified splenic NK cells cultured with IL-2 or IL-15; type: cell-based, mouse; settings: for Fli1 protein induction: 48 h culture with increasing doses of cytokine
# Description: as §1, §2
Molecule,Fli1 transcripts (splenic NK cells [1]),reduction of Fli1 protein (STAT5) [%],Fli1 protein induction (splenic NK cells [2]),"Fli1 protein induced, IL-15 compared with IL-2 (splenic NK cells [2]; 48 h culture, at each dose)"
IL-18: cytokine used to stimulate NK cells ex vivo,decreased Fli1 expression,–,–,–
O=C(N/N=C/c1coc2ccccc2c1=O)c1cccnc1 [STAT5 inhibitor],–,~50,–,–
"IL-2: mouse IL-2 cytokine used to stimulate splenic NK cells (protein, UniProt P04351 21-169, looked up) Interleukin-2: APTSSSTSSSTAEAQQQQQQQQQQQQHLEQLLMDLQELLSRMENYRNLKLPRMLTFKFYLPKQATELKDLQCLEDELGPLRHVLDLTQSKSFQLEDAENFISNIRVTVVKLKGSDNTFECQFDDESATVVDFLRRWIAFCQSIISTSPQ",induced Fli1 transcripts,–,induced by both IL-2 and IL-15 in a dose-dependent manner,–
"IL-12: cytokine used to stimulate NK cells ex vivo (protein, UniProt P29459 23-219; P29460 23-328, looked up) Interleukin-12 subunit alpha: RNLPVATPDPGMFPCLHHSQNLLRAVSNMLQKARQTLEFYPCTSEEIDHEDITKDKTSTVEACLPLELTKNESCLNSRETSFITNGSCLASRKTSFMMALCLSSIYEDLKMYQVEFKTMNAKLLMDPKRQIFLDQNMLAVIDELMQALNFNSETVPQKSSLEEPDFYKTKIKLCILLHAFRIRAVTIDRVMSYLNAS Interleukin-12 subunit beta: IWELKKDVYVVELDWYPDAPGEMVVLTCDTPEEDGITWTLDQSSEVLGSGKTLTIQVKEFGDAGQYTCHKGGEVLSHSLLLLHKKEDGIWSTDILKDQKEPKNKTFLRCEAKNYSGRFTCWWLTTISTDLTFSVKSSRGSSDPQGVTCGAATLSAERVRGDNKEYEYSVECQEDSACPAAEESLPIEVMVDAVHKLKYENYTSSFFIRDIIKPDPPKNLQLKPLKNSRQVEVSWEYPDTWSTPHSYFSLTFCVQVQGKSKREKKDRVFTDKTSATVICRKNASISVRAQDRYYSSSWSEWASVPCS",decreased Fli1 expression,–,–,–
"IL-15: mouse IL-15 cytokine used to stimulate splenic NK cells (protein, UniProt P48346 49-162, looked up) Interleukin-15: NWIDVRYDLEKIESLIQSIHIDTTLYTDSDFHPSCKVTAMNCFLLELQVILHEYSNMTLNETVRNVLYLANSTLSSNKNVAESGCKECEELEEKTFTEFLQSFIRIVQMFINTS",induced Fli1 transcripts,–,induced by both IL-2 and IL-15 in a dose-dependent manner,more Fli1 protein than IL-2 at each dose
